{"source": "patent US7026443", "key": {"HLA-A*0301 (human) [1]": {"molecular_target": "HLA-A*0301 (human)"}, "HLA-A*1101 (human) [2]": {"molecular_target": "HLA-A*1101 (human)"}, "HLA-A*0301 (human) [3]": {"molecular_target": "HLA-A*0301 (human)", "remark": "listed apart in the source"}, "HLA-A*2402 (human) [4]": {"molecular_target": "HLA-A*2402 (human)"}, "HLA-A*2402 (human) [5]": {"molecular_target": "HLA-A*2402 (human)", "remark": "listed apart in the source"}, "HLA-A*1101 (human) [6]": {"molecular_target": "HLA-A*1101 (human)", "remark": "listed apart in the source"}, "[7]": {"details": "remark: other sources report otherwise"}}, "note": "Where two headings read alike, the source gives them in different places.", "data": [{"binder": "SVAALYWYR (modifications not checked)", "note": "[HPV45 E1 peptide … (position 308, 9 amino acids)]", "values": [{"measurement": "relative binding ratio (IC50 of standard peptide / IC50 of test peptide)", "setting": "HLA-A*0301 (human) [1]", "result": 2.9}, {"measurement": "relative binding ratio (IC50 of standard peptide / IC50 of test peptide)", "setting": "HLA-A*1101 (human) [2]", "result": 8.8}]}, {"binder": "ATMCRHYKR (modifications not checked)", "note": "[HPV16 E1 peptide … (position 406, 9 amino acids)]", "values": [{"measurement": "binding affinity ratio (IC50 of standard peptide / IC50 of test peptide)", "setting": "HLA-A*0301 (human) [1]", "result": 0.066}, {"measurement": "binding affinity ratio (IC50 of standard peptide / IC50 of test peptide)", "setting": "HLA-A*1101 (human) [2]", "result": 1.5}, {"measurement": "relative binding ratio (IC50 of standard peptide / IC50 of test peptide) (ratio to standard peptide)", "setting": "HLA-A*0301 (human) [3]", "result": 0.066}]}, {"binder": "VFEFAFKDLF (modifications not checked)", "note": "[… (HPV18 E6, position 44, 10 amino acids)]", "values": [{"measurement": "relative binding ratio (IC50 of standard peptide / IC50 of test peptide)", "setting": "HLA-A*2402 (human) [4]", "result": 0.036}]}, {"binder": "KLPDLCTEL (modifications not checked)", "note": "[HPV45 E6 13 peptide … (SEQ ID NO: 15726)]", "values": [{"measurement": "relative binding ratio (IC50 of standard peptide / IC50 of test peptide)", "setting": "HLA-A*2402 (human) [5]; [7]", "result": 0.0013}]}, {"binder": "VYCKQQLL (modifications not checked)", "note": "[HPV16 E6 38 VYCKQQLL]", "values": [{"measurement": "relative binding ratio (IC50 of standard peptide / IC50 of test peptide)", "setting": "HLA-A*2402 (human) [5]", "result": 0.0069}, {"measurement": "relative binding ratio (IC50 of standard peptide / IC50 of test peptide) (ratio to standard peptide)", "setting": "HLA-A*2402 (human) [4]", "result": 0.0069}]}, {"binder": "QMNMSQWIR (modifications not checked)", "note": "[HPV18 E1 position 426 peptide …]", "values": [{"measurement": "binding affinity ratio (IC50 of standard peptide / IC50 of test peptide)", "setting": "HLA-A*0301 (human) [1]", "result": 0.0011}, {"measurement": "binding affinity ratio (IC50 of standard peptide / IC50 of test peptide)", "setting": "HLA-A*1101 (human) [2]", "result": 0.0023}]}, {"binder": "FYSRIRELRHY (modifications not checked)", "note": "[HPV18 E6 71-81 peptide …]", "values": [{"measurement": "relative binding ratio (IC50 of standard peptide / IC50 of test peptide) (ratio to standard peptide)", "setting": "HLA-A*2402 (human) [5]", "result": 0.0052}]}, {"binder": "LVRNFKSDK (modifications not checked)", "note": "[HPV18 E1 position 229 peptide …]", "values": [{"measurement": "binding affinity ratio (IC50 of standard peptide / IC50 of test peptide)", "setting": "HLA-A*0301 (human) [1]", "result": 0.0005}, {"measurement": "binding affinity ratio (IC50 of standard peptide / IC50 of test peptide)", "setting": "HLA-A*1101 (human) [2]", "result": 0.0002}]}, {"binder": "KLPDLCTEL (modifications not checked)", "note": "[HPV18 E6 13-21 peptide …]", "values": [{"measurement": "relative binding ratio (IC50 of standard peptide / IC50 of test peptide) (ratio to standard peptide)", "setting": "HLA-A*2402 (human) [5]; [7]", "result": 0.0013}]}, {"binder": "GVSFSELVR (modifications not checked)", "note": "[HPV16 E1 peptide … (position 216, 9 amino acids)]", "values": [{"measurement": "binding affinity ratio (IC50 of standard peptide / IC50 of test peptide)", "setting": "HLA-A*0301 (human) [1]", "result": 0.0011}, {"measurement": "binding affinity ratio (IC50 of standard peptide / IC50 of test peptide)", "setting": "HLA-A*1101 (human) [2]", "result": 0.018}]}, {"binder": "DFAFRDLCI (modifications not checked)", "note": "[HPV16 E6 51 …]", "values": [{"measurement": "binding affinity ratio (IC50 of standard peptide / IC50 of test peptide)", "setting": "HLA-A*2402 (human) [5]", "result": 0.0003}, {"measurement": "relative binding ratio (IC50 of standard peptide / IC50 of test peptide) (ratio to standard peptide)", "setting": "HLA-A*2402 (human) [4]", "result": 0.0003}]}, {"binder": "FYSRIREL (modifications not checked)", "note": "[FYSRIREL (HPV18 E6, position 71, 8 amino acids)]", "values": [{"measurement": "relative binding ratio (IC50 of standard peptide / IC50 of test peptide)", "setting": "HLA-A*2402 (human) [4]", "result": 0.026}]}, {"binder": "RFHNIRGRW (modifications not checked)", "note": "[HPV16 E6 131 …]", "values": [{"measurement": "relative binding ratio (IC50 of standard peptide / IC50 of test peptide)", "setting": "HLA-A*2402 (human) [5]; [7]", "result": 0.022}, {"measurement": "relative binding ratio (IC50 of standard peptide / IC50 of test peptide) (ratio to standard peptide)", "setting": "HLA-A*2402 (human) [4]; [7]", "result": 0.022}]}, {"binder": "FMSFLTALK (modifications not checked)", "note": "[HPV16 E1 peptide … (position 453, 9 amino acids)]", "values": [{"measurement": "binding affinity ratio (IC50 of standard peptide / IC50 of test peptide)", "setting": "HLA-A*0301 (human) [1]", "result": 0.13}, {"measurement": "binding affinity ratio (IC50 of standard peptide / IC50 of test peptide)", "setting": "HLA-A*1101 (human) [2]", "result": 0.21}, {"measurement": "binding affinity ratio relative to the standard peptide (IC50 standard / IC50 test)", "setting": "HLA-A*0301 (human) [3]", "result": 0.13}]}, {"binder": "CYSLYGTTL (modifications not checked)", "note": "[HPV16 E6 87 …]", "values": [{"measurement": "binding affinity ratio (IC50 of standard peptide / IC50 of test peptide)", "setting": "HLA-A*2402 (human) [5]", "result": 0.046}, {"measurement": "relative binding ratio (IC50 of standard peptide / IC50 of test peptide) (ratio to standard peptide)", "setting": "HLA-A*2402 (human) [4]", "result": 0.046}]}, {"binder": "LYNLLIRCL (modifications not checked)", "note": "[HPV18 E6 98-106 peptide …]", "values": [{"measurement": "relative binding ratio (IC50 of standard peptide / IC50 of test peptide) (ratio to standard peptide)", "setting": "HLA-A*2402 (human) [5]", "result": 0.0001}]}, {"binder": "PYAVCDKCL (modifications not checked)", "note": "[HPV16 E6 66 …]", "values": [{"measurement": "relative binding ratio (IC50 of standard peptide / IC50 of test peptide)", "setting": "HLA-A*2402 (human) [5]", "result": 0.0078}, {"measurement": "relative binding ratio (IC50 of standard peptide / IC50 of test peptide) (ratio to standard peptide)", "setting": "HLA-A*2402 (human) [4]", "result": 0.0078}]}, {"binder": "MLIQPPKLR (modifications not checked)", "note": "[HPV18 E1 position 312 peptide …]", "values": [{"measurement": "binding affinity ratio (IC50 of standard peptide / IC50 of test peptide)", "setting": "HLA-A*0301 (human) [1]", "result": 0.0005}, {"measurement": "binding affinity ratio (IC50 of standard peptide / IC50 of test peptide)", "setting": "HLA-A*1101 (human) [2]", "result": 0.0014}]}, {"binder": "NMSQWIRFR (modifications not checked)", "note": "[HPV18 E1 position 428 peptide …]", "values": [{"measurement": "binding affinity ratio (IC50 of standard peptide / IC50 of test peptide)", "setting": "HLA-A*0301 (human) [1]", "result": 0.054}, {"measurement": "binding affinity ratio (IC50 of standard peptide / IC50 of test peptide)", "setting": "HLA-A*1101 (human) [2]", "result": 0.0012}]}, {"binder": "PYKLPDLCTEL (modifications not checked)", "note": "[… (HPV18 E6, position 11, 11 amino acids)]", "values": [{"measurement": "relative binding ratio (IC50 of standard peptide / IC50 of test peptide)", "setting": "HLA-A*2402 (human) [4]", "result": 0.0064}]}, {"binder": "PYKLPDLCTEL (modifications not checked)", "note": "[HPV45 E6 position 11 peptide … (SEQ ID NO: 46119)]", "values": [{"measurement": "binding affinity ratio (IC50 of standard peptide / IC50 of test peptide)", "setting": "HLA-A*2402 (human) [4]", "result": 0.0064}]}, {"binder": "ALLRYKCGK (modifications not checked)", "note": "[HPV45 E1 peptide … (position 270, 9 amino acids)]", "values": [{"measurement": "relative binding ratio (IC50 of standard peptide / IC50 of test peptide)", "setting": "HLA-A*0301 (human) [1]", "result": 0.09}, {"measurement": "relative binding ratio (IC50 of standard peptide / IC50 of test peptide)", "setting": "HLA-A*1101 (human) [2]", "result": 0.14}, {"measurement": "relative binding ratio (IC50 of standard peptide / IC50 of test peptide)", "setting": "HLA-A*1101 (human) [6]", "result": 0.14}]}, {"binder": "PYKLPDLCTEL (modifications not checked)", "note": "[HPV45 E6 11 peptide … (SEQ ID NO: 15737)]", "values": [{"measurement": "relative binding ratio (IC50 of standard peptide / IC50 of test peptide)", "setting": "HLA-A*2402 (human) [5]", "result": 0.0064}]}]}
